Measured values: article PMC11187117, “Structure of the endosomal CORVET tethering complex” (Nature Communications, 2024)

Legend:
Test in all cases: cryo-EM structure; single-particle cryo-EM of the hexameric CORVET co-expressed in yeast and purified by 3xFLAG on Vps8 and SEC; about 0.8 mg/ml; consensus map 4.6 Å, local refinements to 3.8 Å
Conditions in all cases: both partners purified
[1] = target: T1, Vps3 (CORVET subunit) (yeast, UniProt P23643 1-1011)
T1 construct: UniProt P23643 printed for its AlphaFold model; N-terminal half (with the β-propeller) was removed from the deposited model; source: yeast lysate in the Vps8-ALFA pull-downs
T1 sequence: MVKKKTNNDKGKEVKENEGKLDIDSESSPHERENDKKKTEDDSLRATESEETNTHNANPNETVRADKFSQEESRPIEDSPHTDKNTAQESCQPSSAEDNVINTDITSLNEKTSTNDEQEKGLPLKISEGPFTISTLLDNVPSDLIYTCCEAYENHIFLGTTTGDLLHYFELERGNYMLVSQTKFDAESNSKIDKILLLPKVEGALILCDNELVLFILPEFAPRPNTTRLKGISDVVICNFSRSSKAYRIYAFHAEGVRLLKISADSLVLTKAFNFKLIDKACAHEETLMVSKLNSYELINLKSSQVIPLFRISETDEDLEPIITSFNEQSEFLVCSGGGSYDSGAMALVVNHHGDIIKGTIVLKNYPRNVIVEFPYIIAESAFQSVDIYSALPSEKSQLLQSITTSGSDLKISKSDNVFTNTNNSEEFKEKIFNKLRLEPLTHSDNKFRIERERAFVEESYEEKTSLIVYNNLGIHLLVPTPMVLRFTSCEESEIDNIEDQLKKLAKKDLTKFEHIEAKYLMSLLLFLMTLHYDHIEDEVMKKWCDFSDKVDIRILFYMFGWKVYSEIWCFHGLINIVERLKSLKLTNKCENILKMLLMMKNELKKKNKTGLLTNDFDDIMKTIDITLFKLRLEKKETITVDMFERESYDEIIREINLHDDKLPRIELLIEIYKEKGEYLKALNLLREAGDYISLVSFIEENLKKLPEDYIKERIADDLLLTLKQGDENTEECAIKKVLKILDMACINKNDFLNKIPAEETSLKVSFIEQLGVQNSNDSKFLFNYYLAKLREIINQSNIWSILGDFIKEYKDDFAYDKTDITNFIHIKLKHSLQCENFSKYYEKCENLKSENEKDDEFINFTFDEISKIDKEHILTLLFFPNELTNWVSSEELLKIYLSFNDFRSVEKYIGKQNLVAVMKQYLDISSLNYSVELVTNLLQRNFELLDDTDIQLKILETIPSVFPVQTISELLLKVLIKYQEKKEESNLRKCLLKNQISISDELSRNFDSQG

[2] = target: T2, Vps8 with 3xFLAG tag (CORVET subunit) (yeast, UniProt P39702 1-1274)
T2 construct: UniProt P39702 printed for its AlphaFold model
T2 sequence: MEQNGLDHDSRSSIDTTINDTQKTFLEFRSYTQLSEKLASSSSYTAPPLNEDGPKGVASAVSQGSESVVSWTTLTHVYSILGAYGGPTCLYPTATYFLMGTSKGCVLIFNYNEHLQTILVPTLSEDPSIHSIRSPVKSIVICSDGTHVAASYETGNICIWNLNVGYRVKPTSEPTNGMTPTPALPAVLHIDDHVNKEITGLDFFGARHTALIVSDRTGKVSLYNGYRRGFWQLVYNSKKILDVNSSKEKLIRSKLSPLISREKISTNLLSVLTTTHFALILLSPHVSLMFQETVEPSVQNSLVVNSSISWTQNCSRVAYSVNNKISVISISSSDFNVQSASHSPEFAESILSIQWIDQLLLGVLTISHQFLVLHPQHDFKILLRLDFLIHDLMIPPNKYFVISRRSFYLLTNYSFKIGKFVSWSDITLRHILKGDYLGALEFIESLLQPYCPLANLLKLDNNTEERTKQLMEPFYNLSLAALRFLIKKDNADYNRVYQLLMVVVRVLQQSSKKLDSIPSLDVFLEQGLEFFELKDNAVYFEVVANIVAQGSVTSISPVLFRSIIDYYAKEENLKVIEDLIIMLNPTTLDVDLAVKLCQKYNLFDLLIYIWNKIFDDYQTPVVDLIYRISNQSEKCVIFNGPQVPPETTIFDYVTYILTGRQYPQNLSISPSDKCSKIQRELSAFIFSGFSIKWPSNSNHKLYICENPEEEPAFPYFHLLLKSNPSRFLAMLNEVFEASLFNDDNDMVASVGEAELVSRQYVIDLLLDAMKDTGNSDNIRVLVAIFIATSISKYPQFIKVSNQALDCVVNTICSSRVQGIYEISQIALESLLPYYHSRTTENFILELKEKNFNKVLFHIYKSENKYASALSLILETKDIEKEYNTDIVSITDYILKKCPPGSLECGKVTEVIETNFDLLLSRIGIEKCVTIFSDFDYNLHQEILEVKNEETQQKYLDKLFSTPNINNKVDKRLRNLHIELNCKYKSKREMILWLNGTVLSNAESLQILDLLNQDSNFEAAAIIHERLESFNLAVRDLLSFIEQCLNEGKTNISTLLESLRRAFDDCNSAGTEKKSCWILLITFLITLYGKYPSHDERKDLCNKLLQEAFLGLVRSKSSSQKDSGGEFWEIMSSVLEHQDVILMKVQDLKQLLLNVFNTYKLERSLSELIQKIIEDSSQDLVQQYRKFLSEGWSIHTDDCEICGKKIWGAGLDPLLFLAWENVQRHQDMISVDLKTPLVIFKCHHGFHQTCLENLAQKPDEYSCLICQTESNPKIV

[3] = target: T3, Vps11 (CORVET and HOPS core subunit) (yeast, UniProt P12868 1-1029)
T3 construct: Vps11, yeast, core subunit shared by CORVET and HOPS
T3 sequence: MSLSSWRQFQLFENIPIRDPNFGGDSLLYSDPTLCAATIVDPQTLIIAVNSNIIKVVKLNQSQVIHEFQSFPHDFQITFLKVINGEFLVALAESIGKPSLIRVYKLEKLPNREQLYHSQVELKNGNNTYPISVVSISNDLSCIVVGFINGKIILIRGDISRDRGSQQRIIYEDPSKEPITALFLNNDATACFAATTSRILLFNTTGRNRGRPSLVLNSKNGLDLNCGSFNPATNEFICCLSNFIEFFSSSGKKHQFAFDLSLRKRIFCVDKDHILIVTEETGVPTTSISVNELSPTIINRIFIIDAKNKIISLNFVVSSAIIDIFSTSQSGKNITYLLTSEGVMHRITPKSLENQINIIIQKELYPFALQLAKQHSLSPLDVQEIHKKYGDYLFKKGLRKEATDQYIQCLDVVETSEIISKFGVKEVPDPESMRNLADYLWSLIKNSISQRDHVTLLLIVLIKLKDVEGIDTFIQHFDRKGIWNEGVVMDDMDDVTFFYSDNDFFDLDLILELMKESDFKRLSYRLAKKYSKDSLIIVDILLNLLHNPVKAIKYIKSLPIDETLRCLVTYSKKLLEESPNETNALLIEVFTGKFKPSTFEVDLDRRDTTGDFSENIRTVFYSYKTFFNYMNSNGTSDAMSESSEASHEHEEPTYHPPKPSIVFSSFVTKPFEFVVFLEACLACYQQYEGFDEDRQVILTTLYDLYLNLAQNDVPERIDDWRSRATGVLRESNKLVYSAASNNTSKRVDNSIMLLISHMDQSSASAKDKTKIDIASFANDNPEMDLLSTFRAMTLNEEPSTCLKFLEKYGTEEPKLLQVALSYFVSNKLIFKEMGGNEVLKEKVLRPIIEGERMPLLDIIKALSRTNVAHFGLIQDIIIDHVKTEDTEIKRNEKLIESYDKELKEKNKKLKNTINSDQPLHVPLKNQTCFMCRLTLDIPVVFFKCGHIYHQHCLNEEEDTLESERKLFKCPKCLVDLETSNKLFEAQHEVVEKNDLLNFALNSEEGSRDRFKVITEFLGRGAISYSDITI

- binding result [1]: binds
- binding result [2]: binds
- binding result [3]: binds
B1: Vps18 (CORVET and HOPS core subunit) (natural protein, yeast)
chain: MIKTRIEEVQLQFLTGNTELTHLKVSNDQLIVTTQRTIYRINLQDPAIVNHFDCPLSKELETIMNVHVSPMGSVILIRTNFGRYMLLKDGEFTQLNKIKNLDLSSLHWINETTFLMGIKKTPKLYRVELTGKDITTKLWYENKKLSGGIDGIAYWEGSLLLTIKDNILYWRDVTNMKFPLVLPDESEQFERLKHHAIKKFDSYNGLFAWVTSNGIVFGDLKEKQMEKDPASNNFGKFLSSSKVLLNFELPDYQNDKDHLIKDIVLTAFHILLLRKNTVTMVSQLNNDVVFHETIPRHQLTGSNTDSNEKFLGLVRDSVKETFWCFSNINVFEIIIENEPNSVWNLLVRDNKFDKALSLKGLTVREIESVKLSKAMYLFHTAKDFHSAAQTLGSMKDLSHFGEIALNFLQIKDYNDLNVILIKQLDNVPWKSTQVVLSSWIIWNFMKQLNDIELKINTTKPASTDEDNLLNWNLNLKEKSNELTKFLESHLEKLDNETVYQIMSKQNRQNELLIFASLINDMKFLLSFWIDQGNWYESLKILLTINNHDLVYKYSLILLLNSPEATVSTWMKIKDLDPNKLIPTILKFFTNWQNNSKLITNISEYPENYSLTYLKWCVREVPKMCNPIVYNSILYMMITDPRNDMILENDIIKFMKSNENKYDLNFQLRLSLKFKKTKTSIFLLTRLNLFEDAIDLALKNNLIDDCKVIVNDEILIEDYKLRKRLWLKIAKHLLLSMKDIDIKQLIRTILNDSNEILTIKDLLPFFNEYTTIANLKEELIKFLENHNMKMNEISEDIINSKNLKVEINTEISKFNEIYRILEPGKSCDECGKFLQIKKFIVFPCGHCFHWNCIIRVILNSNDYNLRQKTENFLKAKSKHNLNDLENIIVEKCGLCSDININKIDQPISIDETELAKWNE
notes: Vps18, yeast, core subunit shared by CORVET and HOPS
